The values below come from PMC12657218, “The Panoptes system uses decoy cyclic nucleotides to defend against phage” (Nature, 2025).

A word on the stoichiometry N: it is a count of units in the complex or per binding partner.

One test has as its target T1, Acb2 (Tequatrovirus T4, UniProt P13314).
T1 construct: full-length, N-terminal 6xHis-hSUMO2 tag cleaved with hSENP2; expressed in E. coli
T1 sequence (P13314 1-88): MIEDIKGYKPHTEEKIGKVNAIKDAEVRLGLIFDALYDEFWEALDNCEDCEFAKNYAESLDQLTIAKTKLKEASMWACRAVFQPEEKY
Description: isothermal titration calorimetry. It counts as binding. As to conditions: read-out: apparent Kd. (In general: Isothermal titration calorimetry measures the heat released or taken up as one component is titrated into another.)

In another test the target is T2, VnOptS (Vibrio navarrensis, UniProt A0A099LXT1).
T2 construct: gene EA26_14275; N-terminal His6 tag with or without hSUMO2; expressed in E. coli
The format is biochemical. As to conditions: MnCl2 1 mM, MgSO4 10 mM, 20 mM HEPES-KOH pH 7.4, 100 mM NaCl; with ATP, GTP, UTP, CTP; from ATP and GTP.

In test [1] the target is OptS from Klebsiella pneumoniae KP67 (minimal CRISPR polymerase, mCpol) (Klebsiella pneumoniae KP67). As to the kind of experiment: crystal structure; apo KpOptS, 1.75 Å, four copies in the asymmetric unit; crystals from 8% PEG 4000, hanging drop, room temperature.
For test [2] the target is unchanged. Description: SEC; HiLoad 16/600 Superdex 200 pg, 20 mM HEPES pH 7.5, 250 mM KCl, 1 mM TCEP-KOH; elution volume compared with molecular weight standards.
For test [3] the target is unchanged. As to the kind of experiment: mass photometry; KpOptS at 50 nM in 20 mM HEPES pH 7.5, 250 mM KCl, room temperature; β-amylase as calibration standard.

For the compound `Nc1ncnc2c1ncn2[C@@H]1O[C@@H]2COP(=O)(O)O[C@@H]3[C@H](O)[C@@H](COP(=O)(O)O[C@H]2[C@H]1O)O[C@H]3n1cnc2c(N)ncnc21` [2′,3′-c-di-AMP], the Kd on Acb2 was ~62 nM. For the compound `Nc1nc2c(ncn2[C@@H]2O[C@@H]3COP(=O)(O)O[C@@H]4[C@H](O)[C@@H](COP(=O)(O)O[C@H]3[C@H]2O)O[C@H]4n2cnc3c(N)ncnc32)c(=O)[nH]1` [3′,2′-cGAMP], on VnOptS, the “HPLC and MS of products” value was “The most abundant product of the in vitro reactions was a linkage isomer of cyclic GMP-AMP”. As to “OptS from Klebsiella pneumoniae KP67 (minimal CRISPR polymerase, mCpol) (enzyme)”, the stoichiometry N is 4 in test [1], > 2 in test [2] and 4 in test [3].
